Target: Lyn kinase (mouse (endogenous in mouse brain)) (UniProt P25911)
Test: pull-down

UniProt P25911, sequence (P25911 whole entry): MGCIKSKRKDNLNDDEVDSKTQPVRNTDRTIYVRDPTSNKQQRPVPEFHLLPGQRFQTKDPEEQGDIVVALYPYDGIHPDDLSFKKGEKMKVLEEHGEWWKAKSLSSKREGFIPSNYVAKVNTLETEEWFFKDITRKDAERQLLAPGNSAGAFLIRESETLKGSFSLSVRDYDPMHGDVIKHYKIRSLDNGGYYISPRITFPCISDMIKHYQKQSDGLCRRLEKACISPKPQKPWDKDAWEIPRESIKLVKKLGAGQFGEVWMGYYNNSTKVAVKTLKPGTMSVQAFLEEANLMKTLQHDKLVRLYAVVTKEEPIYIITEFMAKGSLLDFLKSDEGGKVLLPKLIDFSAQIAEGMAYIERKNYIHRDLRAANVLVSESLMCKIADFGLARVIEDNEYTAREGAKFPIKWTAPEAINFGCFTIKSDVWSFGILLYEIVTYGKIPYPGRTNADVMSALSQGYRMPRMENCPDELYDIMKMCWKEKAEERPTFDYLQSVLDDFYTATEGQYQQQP

“TLR4-Lyn interacting modulator (TLIM) protein (domain or fragment)” was tested, and the IC50 was 17.9 nM.

Source: paper PMC11965285
